Test results published in publication PMC12218921, “An adaptive peptide-binding site in ubiquitin receptor hRpn13 revealed by structural studies” (Nature Communications, 2025).
No end group written: not given here.

B1: hRpn13_ΔMTT (domain or fragment, human)
chain: GSSGALFPSLVPGSRGASNKYLVEFRAGKMSLKGTTVTPDKRKGLVYIQQTDDSLIHFCWKDRTSGNVEDDLIIFPDDCEFKRVPQCPSGRVYVLKFKAGSKRLFFWMQEPKTDQDEEHCRKVNEYLNNPPMPGALGASGSSGHELSAL
notes: hRpn13 (ADRM1), human, hRpn13 (1-150) without M1-T3; 15N-labelled for NMR; also called hRpn13 Pru variant with ENT M1 – T3, aG, and bP deleted; source: E. coli BL21 (DE3), purified (glutathione sepharose, thrombin cleavage, Superdex 75); not shown: GST, N-terminal, cleaved
B4: TAMRA-labeled hRpn2 (940–953) (peptide)
peptide: QEPEPPEPFEYIDD
modifications: also: TAMRA attached, position not given here
notes: also called TAMRA-hRpn2; source: bought: New England Peptide

Tests used:
hRpn13_ΔMTT = biological target: B1; test: fluorescence polarisation; competition: unlabeled peptide at various concentrations preincubated with 80 nM hRpn13_ΔMTT, then 10 nM TAMRA-hRpn2 (940–953) added; PBS with 1 mM TCEP, room temperature; [Inhibitor] vs response (three parameters) fit; estimated EC50; details: both partners purified
[1] = biological target: B4; test: fluorescence polarisation; hRpn13_ΔMTT titrated against TAMRA-hRpn2 (940–953); PBS with 1 mM TCEP, room temperature; [Agonist] vs response (three parameters) fit; details: both partners purified
K48-diUb^EDGEGEE = biological target: T1, K48-diUb^EDGEGEE (human, UniProt P0CG48 1-76; P0CG48 1-76, K48R, G76 joined by an isopeptide bond to K48 of the other ubiquitin | K48 joined by an isopeptide bond to G76 of Ub-K48R); test: NMR titration; 1H-15N HSQC of 0.1 mM 15N-labeled hRpn13_ΔMTT alone and with unlabeled ligand (peptides at varying molar ratios up to 20-fold excess; hRpn2 (940-953) or ubiquitin equimolar, alone or together with 20-fold EDGEGEE; K48-diUb at 4:1, 2:1 and 1:1 hRpn13 to diUb); NMR buffer (20 mM sodium phosphate pH 6.5, 50 mM NaCl, 1 mM TCEP, 10% D2O), 25 °C, 600 MHz; details: both partners purified
T1 construct: Ub-K48R (distal, by the methods): ubiquitin, human; Ub-EDGEGEE (proximal, by the methods): ubiquitin, human; 6-residue linker added to the ubiquitin C-terminal end; Two ubiquitins joined covalently K48-G76; The results call the extended moiety distal, the methods call it proximal; also called K48-linked diubiquitin with Ub-EDGEGEE; source: made enzymatically (E1 from R&D Systems, E2-25K) from …

ubiquitin = biological target: T2, ubiquitin (human, UniProt P0CG48 1-76); test: as above; details: both partners purified
T2 construct: ubiquitin, human, the 76-residue cut product of the polyubiquitin precursor; source: E. coli Rosetta 2(DE3), untagged, purified (cation exchange, SEC)

K48-diUb^ENT = biological target: T3, K48-diUb^ENT (human, UniProt P0CG48 1-76; P0CG48 1-76, K48R, G76 joined by an isopeptide bond to K48 of the other ubiquitin | K48 joined by an isopeptide bond to G76 of Ub-K48R); test: as above; details: both partners purified
T3 construct: Ub-K48R (distal, by the methods): ubiquitin, human; Ub-ENT (proximal, by the methods): ubiquitin, human; 6-residue linker added to the ubiquitin C-terminal end; Two ubiquitins joined covalently K48-G76; The results call the extended moiety distal, the methods call it proximal; also called K48-linked diubiquitin with Ub-ENT; source: made enzymatically (E1 from R&D Systems, E2-25K) from ubiquitin …

K48-diUb^D77 = biological target: T4, K48-diUb^D77 (human, UniProt P0CG48 1-76; P0CG48 1-76, K48R, G76 joined by an isopeptide bond to K48 of the other ubiquitin | K48 joined by an isopeptide bond to G76 of Ub-K48R); test: as above; details: both partners purified
T4 construct: Ub-K48R (distal, by the methods): ubiquitin, human; Ub-D77 (proximal, by the methods): ubiquitin, human; additional aspartate at position 77 (Ub-D77); Two ubiquitins joined covalently K48-G76; The results call the extended moiety distal, the methods call it proximal; also called K48-linked diubiquitin; source: made enzymatically (E1 from R&D Systems, E2-25K) from ubiquitin proteins expressed in …

[2] = biological target: the molecule itself; test: crystal structure; hRpn13 (1–150) at 560 μM in 20 mM HEPES pH 7.5, 100 mM NaCl, 1 mM TCEP; microbatch-under-oil at 4 °C with 0.1 M sodium acetate pH 4.6, 22% PEG3350; one molecule per asymmetric unit, ENT at the interface of Pru molecules of the lattice; 1.85 Å

Binder: PPEPFEYIDD (source: bought: New England Peptide) [hRpn2 (944–953)]
- EC50 (hRpn13_ΔMTT): 87 ± 6 µM

Binder: B1
- EC50 [1]: 0.043 ± 0.007 µM
- binding result (K48-diUb^EDGEGEE): binds
- binding result (ubiquitin): binds
- binding result (K48-diUb^ENT): binds
- binding result (K48-diUb^D77): binds

B2: hRpn13 Pru (1–150) (domain or fragment, human)
chain: GPGSMTTSGALFPSLVPGSRGASNKYLVEFRAGKMSLKGTTVTPDKRKGLVYIQQTDDSLIHFCWKDRTSGNVEDDLIIFPDDCEFKRVPQCPSGRVYVLKFKAGSKRLFFWMQEPKTDQDEEHCRKVNEYLNNPPMPGALGASGSSGHELSAL
notes: four non-native residues (aG-bP-cG-dS) left at the N-terminus after PreScission cleavage of the purification tag; hRpn13 (ADRM1), human, residues 1-150 holding the Pru domain; 15N-labelled (M9 medium) for the NMR experiments, unlabelled (LB) for crystallography; S4-N20 are not seen in the electron density; also called hRpn13 (1–150); Pru-A; source: E. coli BL21(DE3) pLysS, purified (Talon resin, …)
- binding result [2]: binds

B3: EDGEGEE peptide (peptide)
peptide: EDGEGEE
notes: acidic peptide chosen by the authors; also called acidic peptide; source: synthetic peptide (GenScript)
- EC50 (hRpn13_ΔMTT): 637 ± 51 µM

Binder: B4
- binding result (hRpn13_ΔMTT): binds

B5: hRpn2 (940–953) (peptide)
peptide: QEPEPPEPFEYIDD
notes: source: synthetic peptide (GenScript Biotech; for the fluorescence polarization assay bought: New England Peptide)
- EC50 (hRpn13_ΔMTT): 0.32 ± 0.02 µM
